Reference: patent US5739276
“And” between values parts separate entries of the source, which are not always exact repeats. Equal values may be shown once.

Legend:
[1] = molecular target: rat brain Na channel (voltage-sensitive sodium channels in rat brain membranes) (rat); experiment: binding of 125I-δ-conotoxin TxVIA to rat brain membranes, no competitor
[2] = molecular target: rat brain Ca^2+ channels (ω-conotoxin GVIA binding site in rat brain membranes) (rat); experiment: binding of 125I-ω-conotoxin GVIA to rat brain membranes, no competitor
[3] = molecular target: rat brain Na channel (voltage-sensitive sodium channels in rat brain membranes) (rat); experiment: competition on rat brain membranes; label (competitor) 125I-δ-conotoxin TxVIA
[4] = molecular target: rat brain Ca^2+ channels (ω-conotoxin GVIA binding site in rat brain membranes) (rat); experiment: competition on rat brain membranes; label (competitor) 125I-ω-conotoxin GVIA
[5] = molecular target: ω-conotoxin GVIA binding sites on brain membrane preparations from frogs, chicks and rats

Row | Substance | cpm bound [1] | cpm bound [2] | cpm bound [3] | cpm bound [4] | percent of ^125 I-GVIA displaced [5]
1 | ^125 I!δ-conotoxin TxVIA (peptide) | 4890 cpm | – | – | – | –
2 | ^125 I-labeled ω-conotoxin GVIA (from UniProt P01522) (peptide) | – | 4400 cpm | – | – | –
3 | δ-conotoxin PVIA (amidated) (peptide) | – | – | 889 cpm | 4930 cpm | –
4 | δ-conotoxin PVIA (nonamidated) (peptide) | – | – | 848 cpm | 4390 cpm | –
5 | δ-conotoxin TxVIA (peptide) | – | – | 925 cpm | 4720 cpm | –
6 | ω-conotoxin GVIA (from UniProt P01522) (peptide) | – | – | 4710 cpm | 954 cpm | 90% and 98%
